The target of test [1] is Recombinant Mouse IL-13 Rα1/Fc Chimera (R&D) (mouse) (UniProt O09030). Kind of test: SPR (BIACORE), same format; rat IgG control, by definition the 0% reference. (SPR reads the build-up and loss of mass on a sensor chip optically.)
The target of test [2] is Recombinant Human IL-13 Rα1/Fc Chimera (R&D) (human) (UniProt P78552). Described as above.
In test [3] the target is T1, human IL13 Rα1-Fc (fusion of the extracellular domain of human IL13 receptor α1 and an Fc fragment of human … (human, UniProt P78552 22-343)).
T1 construct: extracellular domain; also called soluble IL13 receptor α1-Fc; not shown: human IgG1 Fc domain (cDNA from plasmid pM1304, WO97/42319), joined in frame over a HindIII site
T1 sequence (looked up): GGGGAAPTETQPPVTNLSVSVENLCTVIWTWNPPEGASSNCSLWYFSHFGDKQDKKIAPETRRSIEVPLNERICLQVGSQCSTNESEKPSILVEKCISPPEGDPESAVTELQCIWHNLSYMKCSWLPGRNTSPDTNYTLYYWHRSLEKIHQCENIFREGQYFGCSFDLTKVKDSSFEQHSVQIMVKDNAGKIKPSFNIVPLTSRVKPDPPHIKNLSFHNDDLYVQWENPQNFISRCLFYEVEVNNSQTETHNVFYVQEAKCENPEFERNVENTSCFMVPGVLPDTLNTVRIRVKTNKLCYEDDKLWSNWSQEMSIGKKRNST
Description: SPR (BIACORE), human IL13 Rα1-Fc immobilized on CM5 chip, antibody at 2, 10 and 50 µg/ml. The procedure: The association constant of the anti-IL13 Rα1 antibody prepared was determined using BIACORE. That is, a CM5 chip (Biacore CO., Ltd.) was activated for 7 minutes according to the manual of Biacore Co., Ltd. and then 100 μg/ml of the human IL13 Rα1-Fc prepared in Example 1 was immobilized thereon. An HBS-EP buffer solution (Biacore Co., Ltd) was flown at a flow rate of 20 μl/min, and then the association constants of four kinds of the antibodies diluted to 2, 10, and 50 μg/ml with the same buffer solution were obtained. The binding antibody was dissociated with a 0.1-M glycine hydrochloric acid buffer solution (pH 3.0) and the chip was then used again. The resulting data was analyzed using analyzing software, BIA evaluation, Biacore Co., Ltd., and the dissociation constant (Kd) thereof was calculated.

Test [4] concerns the target T2, IL13 receptor α1 on TF-1 cells (human, UniProt P78552 22-427).
T2 sequence (looked up): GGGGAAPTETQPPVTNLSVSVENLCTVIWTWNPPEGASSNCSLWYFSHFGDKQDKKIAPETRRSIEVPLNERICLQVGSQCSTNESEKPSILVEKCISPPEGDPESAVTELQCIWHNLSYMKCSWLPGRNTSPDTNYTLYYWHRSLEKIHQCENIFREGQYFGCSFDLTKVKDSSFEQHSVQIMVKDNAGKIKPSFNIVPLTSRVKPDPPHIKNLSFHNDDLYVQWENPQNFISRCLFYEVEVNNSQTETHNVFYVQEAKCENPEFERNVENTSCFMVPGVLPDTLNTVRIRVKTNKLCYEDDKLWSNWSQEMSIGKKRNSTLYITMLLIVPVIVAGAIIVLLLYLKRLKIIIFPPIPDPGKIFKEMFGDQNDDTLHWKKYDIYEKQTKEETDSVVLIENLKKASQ
Kind of test: cell-based or functional assay.

Chain of Recombinant Mouse IL-13 Rα1/Fc Chimera (R&D) (mouse) (O09030 26-340 limits assumed, change not shown): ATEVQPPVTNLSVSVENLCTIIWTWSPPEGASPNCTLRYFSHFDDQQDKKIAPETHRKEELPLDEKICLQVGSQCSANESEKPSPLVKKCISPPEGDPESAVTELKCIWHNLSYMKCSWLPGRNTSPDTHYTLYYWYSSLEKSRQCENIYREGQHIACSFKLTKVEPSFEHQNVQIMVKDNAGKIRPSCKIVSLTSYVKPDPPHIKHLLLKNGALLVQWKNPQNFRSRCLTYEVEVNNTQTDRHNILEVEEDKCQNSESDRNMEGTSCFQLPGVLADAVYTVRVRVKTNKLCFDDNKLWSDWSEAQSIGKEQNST

Take rat IgG (control antibody): in test [1], the Mouse IL13/IL13 R binding inhibition rate (%) was found to be 0%. Besides, the Human IL13/IL13 R binding inhibition rate (%) in test [2] amounted to 0%.

B1: F997-20-1 antibody (antibody, IgG1, V domains shown)
VH: EVQLQQSGGGLVQPGRSLNLSCAASGFTFNDYYMAWVRQAPKKGLEWVATIIYDGTRTYYRDSVKGRFTISRDNAKSTLYLQMDSLRSEDTATYYCATPWGSWGQGTTVTVSS
VL: DIQMTQSPSSMPASLGERVTISCRASQGISNFLNWYQQKADGTIKPLIYYTSNLQSAVPSRFSGSGSGTDYSLTISSLEPEDFAMYYCQQYDSSPWTFGGGTKLEITR
Turning to B1, the dissociation constant (Kd) (usually the free concentration of one partner at which half of the binding sites on the other are occupied at equilibrium, for simple one-to-one binding) in test [3] came to 1.07 nM. For the same molecule, in test [4], the “IC50 (µg/mL) for cell response with IL 4 (1 ng/mL); TF-1 proliferation” value was > 10 µg/mL and the “IC50 (µg/mL) for cell response with IL 13 (1 ng/mL); TF-1 proliferation” value amounted to 1.2 µg/mL.

B2: F997-13-1 antibody (antibody, IgG1, V domains shown)
VH: EVKLQQSGGGLVQPGRSMKLSCAASGFTFSNYGMAWVRQAPKKGLEWVAYISYDGGSTYYRDSVKGRFTISRDNAKSTLYLQMDSLRSEDTATYHCTTPHYGYKYWYFDFWGQGTTVTVSS
VL: DIQMTQSPASLSASLGETVTIECRASEDIYNGLAWYQQKPGKSPQLLIYHANSSHTGVPSRFSGSGSGTQYSLKIDSLQSEDVANYFCQQYYDYPTFGAGTKLELKR
As for B2, the affinity in test [3], expressed as Kd, was 4.1 nM. Besides, in test [4], the “IC50 (µg/mL) for cell response with IL 4 (1 ng/mL); TF-1 proliferation” value is > 10 µg/mL and the “IC50 (µg/mL) for cell response with IL 13 (1 ng/mL); TF-1 proliferation” value came to 6.6 µg/mL.
